Data taken from IntAct's records for PubMed 23850456.

B1: Gremlin-2 (Mus musculus), O88273 (parent)
chain: MFWKLSLTLLLVAVLVKVAETRKNRPAGAIPSPYKDGSSNNSERWHHQIKEVLASSQEALVVTERKYLKSDWCKTQPLRQTVSEEGCRSRTILNRFCYGQCNSFYIPRHVKKEEDSFQSCAFCKPQRVTSVIVELECPGLDPPFRIKKIQKVKHCRCMSVNLSDSDKQ
partner: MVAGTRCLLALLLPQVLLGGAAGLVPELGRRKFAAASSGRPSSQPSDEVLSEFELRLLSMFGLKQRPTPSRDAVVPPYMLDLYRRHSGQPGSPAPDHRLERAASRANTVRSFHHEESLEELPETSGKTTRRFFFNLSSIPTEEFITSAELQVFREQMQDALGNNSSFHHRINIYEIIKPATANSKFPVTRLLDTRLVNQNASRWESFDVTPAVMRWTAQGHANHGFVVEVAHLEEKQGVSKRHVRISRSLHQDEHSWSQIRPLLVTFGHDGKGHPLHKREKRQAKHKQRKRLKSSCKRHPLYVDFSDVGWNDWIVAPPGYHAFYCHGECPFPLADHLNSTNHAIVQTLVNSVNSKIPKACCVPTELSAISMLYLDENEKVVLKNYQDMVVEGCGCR
B2: Gremlin-2 (Mus musculus), O88273 (parent)
chain: B1 chain
partner: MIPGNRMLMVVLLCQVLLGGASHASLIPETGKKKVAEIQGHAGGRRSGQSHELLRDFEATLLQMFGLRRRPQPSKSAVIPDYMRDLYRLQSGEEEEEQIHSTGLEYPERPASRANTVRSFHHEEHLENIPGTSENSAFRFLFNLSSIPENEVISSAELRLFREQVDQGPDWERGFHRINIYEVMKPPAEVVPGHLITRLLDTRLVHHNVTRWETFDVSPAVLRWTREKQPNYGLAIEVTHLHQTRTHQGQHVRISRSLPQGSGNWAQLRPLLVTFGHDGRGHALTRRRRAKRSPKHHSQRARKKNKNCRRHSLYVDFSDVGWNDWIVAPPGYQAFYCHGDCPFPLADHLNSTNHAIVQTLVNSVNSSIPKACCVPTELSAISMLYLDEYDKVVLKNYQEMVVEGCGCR

Variants of: B1
Settings: with bmp2_human BMP2, P12643

Row | Variant | effect of a mutation on the interaction
1 | F104A | decreasing interaction strength
2 | F117A | decreasing interaction strength
3 | Y98A | decreasing interaction strength
4 | W72A | decreasing interaction strength
5 | Y105A | decreasing interaction strength

Variants of: B2
Settings: with bmp4_human BMP4, P12644

Row | Variant | effect of a mutation on the interaction
6 | F104A | decreasing interaction strength
7 | Y105A | decreasing interaction strength
8 | F117A | decreasing interaction strength
9 | Y98A | decreasing interaction strength
10 | W72A | decreasing interaction strength
